Data: US11859229B2, “Polyvinyl alcohol-degrading enzyme and process for producing the same” (Hayashibara Co., Ltd., priority 2017, dated 2024)

Key:
Assay type in all cases: biochemical
[1] = Thermal stability and pH stability (residual PVA-oxidizing activity)
Procedure: To 0.5 mL of a substrate solution prepared by dissolving PVA (Reagent grade polyvinyl alcohol, polymerization degree: 2,000, Nacalai Tesque Inc., Kyoto, Japan) into 100 mM sodium phosphate buffer (pH 7.0) to give a concentration of 2% (w/v), 15 µL of 2% (w/v) of sodium azide solution was added, and then 0.5 mL of an enzyme solution is further added and reacted with shaking at 27° C. for 60 min. After the 60 min-reaction, the reaction was stopped by mixing 0.32 mL of the reaction mixture to 0.8 mL of a titanium reagent, and the yellow color, produced by reacting hydrogen peroxide formed by the enzyme reaction and the titanium reagent, was measured by measuring the absorbance at 410 nm (A410) as an index. Separately, the enzyme solution was added to the substrate solution, and the resulting mixture is immediately mixed with the titanium reagent. The resulting mixture was similarly measured its color and the value was used as the value at the reaction zero minutes. Then, the amount of the formed hydrogen peroxide is determined and the PVA-oxidizing activity is calculated based on the following formula. It is known that the absorbance at 410 nm (A410) increases by “1” when 3.65 […]mole/mL of hydrogen peroxide is formed. […]
In the two purified preparations of the PVA-degrading enzyme, PVA-A was used for investigating thermal stability and pH stability using PVA-oxidizing activity as an index according to the assay method. Thermal stability was determined by the steps of incubating the enzyme solution (in 10 mM phosphate buffer, pH 7.0) at various temperature for 60 min, cooling in water, and then measuring the residual enzyme activity. pH Stability was determined by the steps of incubating the enzyme solution in 100 mM buffer with different pH at 4° C. for 24 hours, adjusting pH to 7.0, and then measuring the residual enzyme activity. […] In FIG. 6, symbols, “●”, “▪”, “▴” and “♦”, mean values measured by using acetate buffer, phosphate buffer, glycine-NaOH buffer, and potassium chloride-NaOH buffer, respectively, for pH control.

[2] = Optimum temperature and optimum pH of PVA-oxidizing activity
Procedure: To 0.5 mL of a substrate solution prepared by dissolving PVA (Reagent grade polyvinyl alcohol, polymerization degree: 2,000, Nacalai Tesque Inc., Kyoto, Japan) into 100 mM sodium phosphate buffer (pH 7.0) to give a concentration of 2% (w/v), 15 µL of 2% (w/v) of sodium azide solution was added, and then 0.5 mL of an enzyme solution is further added and reacted with shaking at 27° C. for 60 min. After the 60 min-reaction, the reaction was stopped by mixing 0.32 mL of the reaction mixture to 0.8 mL of a titanium reagent, and the yellow color, produced by reacting hydrogen peroxide formed by the enzyme reaction and the titanium reagent, was measured by measuring the absorbance at 410 nm (A410) as an index. Separately, the enzyme solution was added to the substrate solution, and the resulting mixture is immediately mixed with the titanium reagent. The resulting mixture was similarly measured its color and the value was used as the value at the reaction zero minutes. Then, the amount of the formed hydrogen peroxide is determined and the PVA-oxidizing activity is calculated based on the following formula. It is known that the absorbance at 410 nm (A410) increases by “1” when 3.65 […]mole/mL of hydrogen peroxide is formed. Therefore, in the following Formula 1, the coefficient of “3.65” has been multiplied. […]

[3] = Assay for PVA-oxidizing activity (hydrogen peroxide formation, titanium reagent, A410)
Procedure: As shown in the above (1), the PVA-degrading enzyme of the present invention has an PVA-oxidizing activity, i.e., an activity of catalyzing the reaction of oxidizing PVA as substrate and forming hydrogen peroxide. For example, the PVA-oxidizing activity can be measured by the following method.
To 0.5 mL of a substrate solution prepared by dissolving PVA (Reagent grade polyvinyl alcohol, polymerization degree: 2,000, Nacalai Tesque Inc., Kyoto, Japan) into 100 mM sodium phosphate buffer (pH 7.0) to give a concentration of 2% (w/v), 15 µL of 2% (w/v) of sodium azide solution was added, and then 0.5 mL of an enzyme solution is further added and reacted with shaking at 27° C. for 60 min. After the 60 min-reaction, the reaction was stopped by mixing 0.32 mL of the reaction mixture to 0.8 mL of a titanium reagent, and the yellow color, produced by reacting hydrogen peroxide formed by the enzyme reaction and the titanium reagent, was measured by measuring the absorbance at 410 nm (A410) as an index. Separately, the enzyme solution was added to the substrate solution, and the resulting mixture is immediately mixed with the titanium reagent. The resulting mixture was similarly measured its color and the value was used as the value at the reaction zero minutes. Then, the amount of the formed hydrogen peroxide is determined and the PVA-oxidizing activity is calculated based on the following formula. It is known that the absorbance at 410 nm (A410) increases by “1” when 3.65 […]mole/mL of hydrogen peroxide is formed. Therefore, in the following Formula 1, the coefficient of “3.65” has been multiplied. One unit of the PVA-oxidizing activity is defined as the amount of enzyme that forms 1 […]mole of hydrogen peroxide per min under the above conditions. Titanium reagent is prepared by diluting 5% titanium sulfate (IV) solution, commercialized by Nacalai Tesque Inc., Kyoto, Japan, 25-fold with 10% (w/w) sulfuric acid.

[4] = Detection of β-diketone hydrolyzing activity (acetone from 2,4-pentanedione by gas chromatography); set-up: key: Yes: Acetone, a product by the hydrolysis, was qualitatively detected; settings: qualitative
Source text: As shown in the above (2), the PVA-degrading enzyme of the present invention has an activity of hydrolyzing […]-diketone, i.e., […]-diketone-hydrolyzing activity. Enzymes having β-diketone-hydrolyzing activity can hydrolyze an oxidized PVA having a […]-diketone structure (i.e., oxidized PVA). Beta-diketone-hydrolyzing activity can be detected by examining the activity of hydrolyzing 2, 4-pentanedione which is a model compound of oxidized PVA having a […]-diketone structure. Acetone and acetic acid are formed when a PVA-degrading enzyme hydrolyzes 2,4-pentanedione. Therefore, for example, […]-diketone-hydrolyzing activity can be detected by the following method using 2,4-pentanedione as a substrate.
2,4-Pentanedione (Reagent grade, commercialized by Wako Pure Chemical Industries Co., Ltd., Osaka, Japan) was added to 50 mM sodium phosphate buffer (pH 7.0) to give a concentration of 0.2% (w/v) to make into a substrate solution. To 1 mL of the substrate solution, 0.2 mL of enzyme solution and 0.8 mL of 50 mM sodium phosphate buffer (pH 7.0) were added and then the mixture was shaken at 27° C. for 3 hours for the reaction. After the reaction, 2 mL of the reaction mixture was withdrawn and put in a glass vial, and then the vial was sealed and heated at 95° C. for 40 min. […]

[5] = PVA-degrading (viscosity-reducing) activity; settings: at each purification step
Procedure: While, activity as a PVA-degrading enzyme can be measured, for example, by measuring the viscosity reduction of a PVA solution, caused by the degradation of PVA, as an index using the following method.
To 0.5 mL of a substrate solution prepared by dissolving PVA (Reagent grade polyvinyl alcohol, polymerization degree: 2,000, Nacalai Tesque Inc., Kyoto, Japan) into 100 mM sodium phosphate buffer (pH 7.0) to give a concentration of 2% (w/v), 15 µL of 2% (w/v) of sodium azide solution was added, and then 0.5 mL of an enzyme solution is further added and reacted with shaking at 27° C. for 60 min. After the reaction, 0.6 mL of the reaction mixture was withdrawn and its viscosity was measured using a Cone plate-type viscometer (“DV-II+Pro”, Brookfield Co., Ltd.) at 30° C. Separately, the enzyme solution was added to the substrate solution and the viscosity was measured immediately, and the viscosity was used as that at zero-min reaction. The PVA-degrading activity was calculated based on the following formula. One unit of the PVA-degrading activity was defined as the amount of enzyme that causes a 10%-reduction of relative viscosity per min under the above conditions. […]

B1: PVA-B: purified PVA-degrading hybrid enzyme from Pseudomonas sp. VT1B strain, amino acid sequence of SEQ ID NO: 3 (protein, listed as Pseudomonas sp.)
chain: AENWPMFGKNYENSRATADTQLSTSNISSLNVVRRTADGGITGTPTVVDGVAYYSDFSGYVKAVRVNDGAVLWRVRPQTTMLSPSPFVTDDTVYVAGNNSYVYALNRLDGAVRWTTQIETSPNSRISSSPIVVDNILMIGTGSYQVFIPATPMFRGRVVFLNATTGAILPYSTNMCPEGLCGGGISVWSTAAVDVSTRTGYIGTGQAYRDPAGPYSDSLVAFDIDTGAIRWSQQFLANDVYQLGGVLRYDYDVGAAPNLFVADERRMVGVGGKDGTYRAFDRDTGAPIWTTPVGRGSPIGGVMQSTAYGDGRIYVTSNTSTIGGGRNDPVPATAEALALDAATGTPVWIRQLDAGGFGGVAYANGLMYASVWDGRMRVFNAANGNIVKEVQVSPSRGVYVAAPTDGFPNGSAGGPIVYGNRVLMGYGWTWVLNISGGLATMELVSGGGETQTVTLASNQDTYVQSGTPTTSYNANEFLLARLADAEGLTRASFLQFPLTAIPAGTITSARLRLYGRHDAPTGTGQPVSVWPGTFTTPWNGADVIYNNSDLVTGVNFYLTSPIANALIGITPQYYEWDVTGYVDSRRALGHATFGVAVDYGHLYRVTFNSADNAANRPELVVAVSTGGTSEPDPELPPGSMEGSCPAGFTPRAGVNQGFIHNGVARGFVLNVPANVSTPRPMFVSLTGSVESTNENLGPRGGAGALTNDGFLVIGPVRRCAGQDPNGSGTSVGGGTCNQPGTGGWNWNPWNEGRAFGAAGDQWKTAEGPDSEFLESVARCVAKRFPVDSKRMYLGGISSGGTLTNRALLFNSDFWAGGLPISGEWYVTRDDGTAYPGPDEFAARRQAVIDDPTKIFQGRVGPLPLRSTLDPMIVITVWGGTNDVWSCDGVTLCADYRPSTQVASNYFSAQPNVVHVACSSSHGHQWPTINRAAFNTWAATTLASHPKGTPASAFVLPPPPAGYTCRIGPYIDHYERACSVDGDGDIDRNDIAVITAARNQPASGPTDLRDVDRSGVIDVNDARACTLRCDRPNCAVQ
Thermal stability of PVA-oxidizing activity ([1]; 10 mM phosphate buffer, pH 7.0, 60 min): almost the same | pH stability of PVA-oxidizing activity ([1]; 100 mM buffer, 4° C. for 24 hours): almost the same | Optimum pH of PVA-oxidizing activity ([2]; 60 min-reaction at 27° C.): almost the same | Optimum temperature of PVA-oxidizing activity ([2]; 60 min-reaction at pH 7.0): almost the same | Specific activity ([3]; PVA-oxidizing activity per mg protein at each purification step): 1.9 U/mg | Total Activity (PVA-oxidizing activity) ([3]; at each purification step, from 4 L culture supernatant): 3.3 U | 2,4-Pentanedione-Degrading Activity [4]: Yes* | Total PVA-Degrading Activity (Viscosity-reducing Activity) [5]: 8.4 U
